In US20250270315A1:
Like-named read-outs stand apart in the source and are kept apart here.

T1: C57BL/6 mouse SIRPα ECD recombinant protein (6×His tagged) (C57BL/6 mouse) (UniProt P97797)
T1 sequence (looked up): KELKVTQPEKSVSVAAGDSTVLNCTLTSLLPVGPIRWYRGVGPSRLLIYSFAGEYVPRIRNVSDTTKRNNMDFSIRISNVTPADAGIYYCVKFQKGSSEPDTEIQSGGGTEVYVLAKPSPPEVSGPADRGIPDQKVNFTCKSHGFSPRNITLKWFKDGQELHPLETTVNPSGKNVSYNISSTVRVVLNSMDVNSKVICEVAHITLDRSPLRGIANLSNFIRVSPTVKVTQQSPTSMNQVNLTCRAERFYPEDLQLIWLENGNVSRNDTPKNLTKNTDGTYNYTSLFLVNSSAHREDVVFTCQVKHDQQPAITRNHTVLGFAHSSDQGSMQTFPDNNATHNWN


Columns and labels:
[1] = target: cyno SIRPα stably expressed on CHOK1 cells (cyno); assay: FACS, CHOK1-cyno SIRPα cells
[2] = target: Human SIRPα v2 (antigen of the Octet and Biacore affinity measurements) (human) (UniProt P78324); assay: SPR (Biacore), 1:1 binding model
[3] = target: human SIRPα v2 expressed on cells (CHOK1 stable line KYinno KC-1720) (human) (UniProt P78324); assay: FACS, CHOK1-hSIRPα v2 cells
[4] = target: human SIRPα v2 expressed on cells (CHOK1 stable line KYinno KC-1720) (human) (UniProt P78324); assay: competitive FACS, mFc-CD47 ECD on CHOK1-human SIRPα v2 cells
[5] = target: cyno SIRPα stably expressed on CHOK1 cells (cyno); assay: FACS, CHOK1-Cyno SIRPα cells
[6] = target: human SIRPα v2 expressed on cells (CHOK1 stable line KYinno KC-1720) (human) (UniProt P78324); assay: FACS, CHOK1-hSIRPα v2 cells; remark: listed apart in the source
[7] = target: Human SIRPα v2 (antigen of the Octet and Biacore affinity measurements) (human) (UniProt P78324); assay: BLI (Octet), 1:1 binding model
[8] = target: human SIRPα v2 expressed on cells (CHOK1 stable line KYinno KC-1720) (human) (UniProt P78324); assay: FACS, CHOK1 cells stably expressing human SIRPα v2
[9] = target: T1, C57BL/6 mouse SIRPα ECD recombinant protein (6×His tagged) (C57BL/6 mouse); assay: ELISA, C57BL/6 mouse SIRPα ECD

MFI at 10 nM [1] [MFI] | IC50 [4] [nM] | TOP blocking (%) [4] [%] | EC50 [5] [nM] | TOP MFI [5] [MFI] | EC50 [6] [nM] | TOP MFI [6] [MFI] | Binder | also measured
5970 | – | – | – | – | – | – | 005 (antibody, V domains shown) VH: EVKLVESGGGLVQPGGSLSLSCAASGFTFTDYYMSWVRQPPGKALEWLGFIKNEANGYTTESSASVKGRFTISRDNSQSILYLQMNALRAEDSATYYCARYDYYGSNYNWYFDAWGTGTTVTVSS VL: DIVMTQSQKFMSPSVGDRVSITCKASQNVRTAVAWYQQKPGQSPKVLIHLASKRHTGVPDRFTGSGSGTDFTLTISNVQSEDLADYFCLQHWIHPLTFGAGTKLELK | –
5840 | – | – | – | – | – | – | 059 (antibody, V domains shown) VH: QVQLQQSGPELVKPGASVKMSCKASGYTFSEYVLSWVKQRTGQGLEWIGEIYPGTITTYYNEKFKGKATLTADKSSNTAYIQLTSLTSEDSAVYFCGRFYDYDGGWFAYWGQGTLLTVSA VL: ENVLTQSPEKMAVSLGQKVTMTCSASSSVSSSDLHWYQQKSGASPKPLIHGTSNLASGVPARFSGSGSGTSYSLTISSVEAEDAATYYCQQWSGYPWTFGGGTNLEIK | –
– | 0.75 | 100 | – | – | – | – | hu025.023 (antibody, V domains shown) VH: EVQLVQSGAEVKKPGATVKISCKVSGFNIKDYYMHWVQQAPGKGLEWIGRIDPEDAETKYAPKFQGRVTITADTSTNTAYMELSSLRSEDTAVYYCDRGLAYWGQGTLVTVSS VL: EIVLTQSPATLSLSPGERATLSCSASSSVSSSYLYWYQQKPGQAPKLWIYSTSNLASGIPARFSGSGSGTDFTLTISSLEPEDFAVYYCHQWSSYPYTFGQGTKLEIK | Kd [2]: 2.78 nM; koff [2]: 0.00492 s⁻¹; kon [2]: 1.77e+06 M⁻¹ s⁻¹; EC50 [3]: 0.81 nM; TOP MFI [3]: 45800 MFI
– | 0.77 | 99.8 | – | – | – | – | hu025.060 (antibody, V domains shown) VH: EVQLVQSGAEVKKPGATVKISCKASGFNIKDYYMHWVQQAPGKGLEWIGRIDPEDAETKYAPKFQGRVTITADTSTNTAYMELSSLRSEDTAVYYCDRGLAYWGQGTLVTVSS VL: EIVLTQSPATLSLSPGERATLSCSASSSVSSSYLYWYQQKPGQAPKLWIYSTSNLASGIPARFSGSGSGTDFTLTISSLEPEDFAVYYCHQWSSYPYTFGQGTKLEIK | Kd [2]: 2.34 nM; koff [2]: 0.00344 s⁻¹; kon [2]: 1.47e+06 M⁻¹ s⁻¹; EC50 [3]: 0.8 nM; TOP MFI [3]: 48800 MFI
– | 0.63 | 99.7 | 0.69 | 30800 | 1.34 | 51600 | 025c (antibody, V domains shown) VH: EVQLQQSGAELVKPGASVKLSCTASGFNIKDYYMHWVKQRTEQGLEWIGRIDPEDGETKYAPKFQGKATITADTSSNTAYLQLSSLTSEDTAVYYCDRGLAYWGQGTLVTVSA VL: QIVLTQSPAIMSASPGEKVTLTCSASSSVSSSYLYWYQQKPGSSPKLWIYSTSNLASGVPARFSGSGSGTSYSLTISSMEAEDAASYFCHQWSSYPYTFGGGTKLEIK | Kd [2]: 1.69 nM; koff [2]: 0.00254 s⁻¹; kon [2]: 1.51e+06 M⁻¹ s⁻¹; EC50 [3]: 0.99 nM; TOP MFI [3]: 53000 MFI; Kd [7]: 2.67 nM; koff [7]: 0.00293 s⁻¹; kon [7]: 1.1e+06 M⁻¹ s⁻¹; EC50 (read off the curve) [8]: 1 nM
– | – | – | 0.69 | 29700 | 1.58 | 50100 | 015c (antibody, V domains shown) VH: EVQLQQSGVEVVQPGASVKLSCTASGFNIEAYYMHWVKQRTEQGLEWIGRIDPEDGESKYAPKFQGKATMTADTSSSTAYLQLSSLTSDDTAVYYCVRGSYEYWGQGTTLTVSS VL: QIVLTQSPAIMSASPGEKVTLTCSASSSVSSSYLYWYQQKPGSSPKLWIYSTSNLASGVPPRFSGSGSGTSYSLTISSMQAEDAASYFCYQWSSYPYTFGGGTKLEIK | Kd [7]: 0.937 nM; koff [7]: 0.00117 s⁻¹; kon [7]: 1.24e+06 M⁻¹ s⁻¹
10800 | – | – | – | – | – | – | 015 (antibody, V domains shown) VH: EVQLQQSGVEVVQPGASVKLSCTASGFNIEAYYMHWVKQRTEQGLEWIGRIDPEDGESKYAPKFQGKATMTADTSSSTAYLQLSSLTSDDTAVYYCVRGSYEYWGQGTTLTVSS VL: QIVLTQSPAIMSASPGEKVTLTCSASSSVSSSYLYWYQQKPGSSPKLWIYSTSNLASGVPPRFSGSGSGTSYSLTISSMQAEDAASYFCYQWSSYPYTFGGGTKLEIK | –
8560 | – | – | – | – | – | – | 025 (antibody, V domains shown) VH: EVQLQQSGAELVKPGASVKLSCTASGFNIKDYYMHWVKQRTEQGLEWIGRIDPEDGETKYAPKFQGKATITADTSSNTAYLQLSSLTSEDTAVYYCDRGLAYWGQGTLVTVSA VL: QIVLTQSPAIMSASPGEKVTLTCSASSSVSSSYLYWYQQKPGSSPKLWIYSTSNLASGVPARFSGSGSGTSYSLTISSMEAEDAASYFCHQWSSYPYTFGGGTKLEIK | –
– | 5.61 | 98.7 | 0.72 | 14900 | 0.85 | 18700 | hu1H9G4 (antibody, V domains shown) VH: QVQLVQSGAEVKKPGASVKVSCKASGYTFTSYWITWVKQAPGQGLEWIGDIYPGSGSTNHIEKFKSKATLTVDTSISTAYMELSRLRSDDTAVYYCATGYGSSYGYFDYWGQGTLVTVSS VL: DIQMTQSPSSLSASVGDRVTITCRASENIYSYLAWYQQKPGKAPKLLIYTAKTLAEGVPSRFSGSGSGTDFTLTISSLQPEDFATYYCQHQYGPPFTFGQGTKLELK | OD450 at 100 nM [9]: 0.23 OD450
6850 | – | – | – | – | – | – | 042 (antibody, V domains shown) VH: QIQLVQSGPELKKPGETVKISCRASGYTFTTYGMSWVKQAPGKGLRWMGWINTYSGVSTCADDFKGRFAFSLETSATTAYLQIHNLTNEDTATYFCARDPHSYGNSPAWFPYWGQGTLVTVSA VL: DIVMTQSQKFMSTTIRDRVSITCKASQNVGISVAWYQQKSGQSPKLLIYSASNRYTGVPDRFTGSGSGTDFTLTISNMQSEDLADYFCQQYSSYPLTFGSGTKLAIK | –
– | – | – | 2.95 | 32400 | 4.21 | 54800 | 042c (antibody, V domains shown) VH: QIQLVQSGPELKKPGETVKISCRASGYTFTTYGMSWVKQAPGKGLRWMGWINTYSGVSTCADDFKGRFAFSLETSATTAYLQIHNLTNEDTATYFCARDPHSYGNSPAWFPYWGQGTLVTVSA VL: DIVMTQSQKFMSTTIRDRVSITCKASQNVGISVAWYQQKSGQSPKLLIYSASNRYTGVPDRFTGSGSGTDFTLTISNMQSEDLADYFCQQYSSYPLTFGSGTKLAIK | Kd [7]: 6.14 nM; koff [7]: 0.00378 s⁻¹; kon [7]: 616000 M⁻¹ s⁻¹
8370 | – | – | – | – | – | – | 071 (antibody, V domains shown) VH: QIQLVQSGPELKKPGETVKISCKASGYTFTTYGMSWVKQAPGKGLKWMVWINTYSGVPTYADDFQGRFAFSLETSASTSYLQINNLRNEDTATYFCARDPHYYGTSPAWFAYWGQGTLVTVSA VL: DIVMTQSQKFMSTTIGDRVIITCKASQIVGIAVAWYQQKPGQSPKLLIYSASNRFTGVPDRFTGSGSGTDFTLTISNMQSEDLADYFCQQYSTYPFTFGSGTKLEIK | –
7850 | – | – | – | – | – | – | 073 (antibody, V domains shown) VH: QIQLVQSGPELKKPGETVKISCKASGYTFTTYGMSWVKQAPGKGLKWMVWINTYSGVPTYADDFKGRFAFSLETSASTSYLQINNLKNEDTATYFCARDPHYYGSSPAWFVYWGQGTLVTVSA VL: DIVMTQSQKFMSTTIGDRVSITCEASQIVGIAVAWYQQKPGQSPKLLIYSASNRYTGVPDRFTGSGSGTDFTLTISNMQSEDLANYFCQQYSAYPFTFGSGTKLEVK | –
